The target of assay [1] is T1, rhesus serum albumin (rhesus macaque, UniProt Q28522).
T1 chain: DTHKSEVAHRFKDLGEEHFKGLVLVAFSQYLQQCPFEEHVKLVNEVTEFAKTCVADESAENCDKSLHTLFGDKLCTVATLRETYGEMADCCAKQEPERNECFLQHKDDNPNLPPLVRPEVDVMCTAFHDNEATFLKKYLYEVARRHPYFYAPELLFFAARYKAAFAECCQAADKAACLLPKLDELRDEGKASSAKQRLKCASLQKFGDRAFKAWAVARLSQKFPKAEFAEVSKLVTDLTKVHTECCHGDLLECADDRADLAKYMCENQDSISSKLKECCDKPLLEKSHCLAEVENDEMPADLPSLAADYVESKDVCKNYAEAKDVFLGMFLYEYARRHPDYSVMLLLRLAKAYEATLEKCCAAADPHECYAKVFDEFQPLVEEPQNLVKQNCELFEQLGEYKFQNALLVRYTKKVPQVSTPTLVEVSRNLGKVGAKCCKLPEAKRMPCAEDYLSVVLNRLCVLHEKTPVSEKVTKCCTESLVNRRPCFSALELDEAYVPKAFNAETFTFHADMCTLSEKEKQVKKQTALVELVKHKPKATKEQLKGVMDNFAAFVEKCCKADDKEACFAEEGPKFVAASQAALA
Put plainly: FP, PBS pH 7.4.

Assay [2] addresses T2, human serum albumin (HSA) (human, UniProt P02768). Put plainly: FP, pH 6.2, 0.14 M NaCl.
Assay [3] deals with T2, human serum albumin (HSA). Put plainly: FP, pH 7.4, 0.14 M NaCl.
Assay [4] addresses T3, rat serum albumin (rat, UniProt P02770).
T3 chain: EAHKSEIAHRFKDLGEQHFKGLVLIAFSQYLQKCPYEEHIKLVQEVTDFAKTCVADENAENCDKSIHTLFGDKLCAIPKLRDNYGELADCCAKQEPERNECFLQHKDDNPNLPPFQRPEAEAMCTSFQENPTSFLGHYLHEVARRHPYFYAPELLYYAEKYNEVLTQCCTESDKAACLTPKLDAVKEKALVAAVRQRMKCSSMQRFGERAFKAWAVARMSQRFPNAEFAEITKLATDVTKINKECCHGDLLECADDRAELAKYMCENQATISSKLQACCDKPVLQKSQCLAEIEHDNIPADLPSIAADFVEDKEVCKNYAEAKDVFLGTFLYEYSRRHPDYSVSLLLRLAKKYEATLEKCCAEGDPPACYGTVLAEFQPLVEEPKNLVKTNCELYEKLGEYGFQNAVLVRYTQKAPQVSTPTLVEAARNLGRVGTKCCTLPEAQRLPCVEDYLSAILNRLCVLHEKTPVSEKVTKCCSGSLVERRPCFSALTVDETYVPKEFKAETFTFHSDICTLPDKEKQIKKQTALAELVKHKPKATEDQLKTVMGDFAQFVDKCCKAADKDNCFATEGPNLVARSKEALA
Put plainly: FP, PBS pH 7.4.

The target of assay [5] is T2, human serum albumin (HSA). Put plainly: FP, pH 6.2, no NaCl.
The target of assay [6] is T2, human serum albumin (HSA). Put plainly: FP, pH 6.2, no NaCl. This is another data set of the same source.
Assay [7] addresses T4, pig serum albumin (pig, UniProt P08835).
T4 chain: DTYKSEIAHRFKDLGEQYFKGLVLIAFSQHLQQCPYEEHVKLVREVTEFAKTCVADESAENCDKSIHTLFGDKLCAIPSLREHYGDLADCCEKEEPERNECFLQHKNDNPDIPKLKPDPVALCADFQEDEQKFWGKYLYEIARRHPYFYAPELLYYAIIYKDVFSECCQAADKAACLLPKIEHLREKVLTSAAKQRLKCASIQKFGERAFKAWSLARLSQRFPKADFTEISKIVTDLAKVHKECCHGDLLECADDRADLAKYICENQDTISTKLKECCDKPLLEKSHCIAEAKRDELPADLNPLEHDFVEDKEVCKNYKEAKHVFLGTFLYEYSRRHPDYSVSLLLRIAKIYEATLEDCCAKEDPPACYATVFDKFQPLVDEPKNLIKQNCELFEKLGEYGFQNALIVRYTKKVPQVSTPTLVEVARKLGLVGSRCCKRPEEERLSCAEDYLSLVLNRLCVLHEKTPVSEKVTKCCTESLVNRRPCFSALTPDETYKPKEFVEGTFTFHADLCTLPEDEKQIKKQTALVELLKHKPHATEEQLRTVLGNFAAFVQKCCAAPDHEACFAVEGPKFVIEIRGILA
Put plainly: FP, PBS pH 7.4.

Assay [8] deals with T5, chicken ovalbumin (chicken, UniProt P01012).
T5 chain: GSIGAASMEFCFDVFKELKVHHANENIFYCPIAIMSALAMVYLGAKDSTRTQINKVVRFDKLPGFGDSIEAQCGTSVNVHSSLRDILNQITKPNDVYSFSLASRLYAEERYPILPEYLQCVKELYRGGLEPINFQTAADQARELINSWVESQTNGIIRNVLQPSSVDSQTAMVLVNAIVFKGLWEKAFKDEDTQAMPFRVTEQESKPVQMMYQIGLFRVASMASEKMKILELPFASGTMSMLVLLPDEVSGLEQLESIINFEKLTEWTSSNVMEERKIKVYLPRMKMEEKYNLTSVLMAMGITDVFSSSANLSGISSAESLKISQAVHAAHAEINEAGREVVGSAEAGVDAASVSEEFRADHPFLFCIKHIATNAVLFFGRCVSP
Put plainly: FP, pH 6.2, no NaCl.

Where only a bound is given, the exact number is not on record here.

B1: DX-321 (peptide)
chain: AEGTGDRNMCKFSWIRSPAFCARADPEXK
modifications: disulfide cyclic, N-acetyl, C-amide, X = 6-aminohexanoic acid, fluorescein on Lys
A word on the Kd: it is the concentration at which binding is half-saturated. For the molecule B1, the Kd in assay [1] stood at 82 µM; in assay [2], 9 µM; in assay [3], 84 µM; in assay [4], 117 µM; in assay [5] it was 0.9 µM; in assay [6], 0.9 µM. Moreover, the Kd in assay [7] and in assay [8] was more than 200 µM each time.

The values are drawn from US7211395 (dated 2007).
